Here are results for two molecules from article doi:10.1101/2025.02.20.639226, “In vitro reconstitution of minimal human centrosomes” (bioRxiv, 2025).

Test [1] deals with GFP::CDK5RAP2 isoform B (full-length, wild type) (human) (UniProt Q96SN8). The test can be described thus: partitioning into in vitro scaffolds, confocal fluorescence microscopy; 4-component asters: 167nm GFP::CDK5RAP2, 33nM mBFP::γ-TuRCs, 33nM mCherry::HSET, 13μM HiLyte-647-labeled α/β tubulin; 50mM KCl, 25mM HEPES, pH7.4, IgM+; no ATP·MgCl2; compared with 3-component asters.
Test [2] concerns the target T1, GFP::CDK5RAP2 isoform B (full-length, wild type) (human, UniProt Q96SN8-4 1-1814).
T1 construct: CDK5 regulatory subunit-associated protein 2 (CDK5RAP2/CEP215), human, isoform B, Protein ID Q96SN8-4, lacking a.a; 1576-1654 of the longest isoform; Stood in the assays as micron-scale assemblies nucleated by an anti-CM2 IgM; also called CEP215; GFP::CDK5RAP2 scaffolds; source: SF9 insect cells (baculovirus, FlexiBAC), purified (Ni-NTA, MBP trap beads, eluted with PreScission protease)
The test can be described thus: partitioning into in vitro scaffolds, confocal fluorescence microscopy; GFP::CDK5RAP2 assemblies (120nM) induced with anti-CM2 IgM; mCherry, full-length or ΔIDR mCherry::HSET at 50nM; 50mM KCl, 25mM HEPES; partition coefficient. To be noted: both partners purified.

T1 sequence (Q96SN8 other isoform, or with tags, fused parts or gaps): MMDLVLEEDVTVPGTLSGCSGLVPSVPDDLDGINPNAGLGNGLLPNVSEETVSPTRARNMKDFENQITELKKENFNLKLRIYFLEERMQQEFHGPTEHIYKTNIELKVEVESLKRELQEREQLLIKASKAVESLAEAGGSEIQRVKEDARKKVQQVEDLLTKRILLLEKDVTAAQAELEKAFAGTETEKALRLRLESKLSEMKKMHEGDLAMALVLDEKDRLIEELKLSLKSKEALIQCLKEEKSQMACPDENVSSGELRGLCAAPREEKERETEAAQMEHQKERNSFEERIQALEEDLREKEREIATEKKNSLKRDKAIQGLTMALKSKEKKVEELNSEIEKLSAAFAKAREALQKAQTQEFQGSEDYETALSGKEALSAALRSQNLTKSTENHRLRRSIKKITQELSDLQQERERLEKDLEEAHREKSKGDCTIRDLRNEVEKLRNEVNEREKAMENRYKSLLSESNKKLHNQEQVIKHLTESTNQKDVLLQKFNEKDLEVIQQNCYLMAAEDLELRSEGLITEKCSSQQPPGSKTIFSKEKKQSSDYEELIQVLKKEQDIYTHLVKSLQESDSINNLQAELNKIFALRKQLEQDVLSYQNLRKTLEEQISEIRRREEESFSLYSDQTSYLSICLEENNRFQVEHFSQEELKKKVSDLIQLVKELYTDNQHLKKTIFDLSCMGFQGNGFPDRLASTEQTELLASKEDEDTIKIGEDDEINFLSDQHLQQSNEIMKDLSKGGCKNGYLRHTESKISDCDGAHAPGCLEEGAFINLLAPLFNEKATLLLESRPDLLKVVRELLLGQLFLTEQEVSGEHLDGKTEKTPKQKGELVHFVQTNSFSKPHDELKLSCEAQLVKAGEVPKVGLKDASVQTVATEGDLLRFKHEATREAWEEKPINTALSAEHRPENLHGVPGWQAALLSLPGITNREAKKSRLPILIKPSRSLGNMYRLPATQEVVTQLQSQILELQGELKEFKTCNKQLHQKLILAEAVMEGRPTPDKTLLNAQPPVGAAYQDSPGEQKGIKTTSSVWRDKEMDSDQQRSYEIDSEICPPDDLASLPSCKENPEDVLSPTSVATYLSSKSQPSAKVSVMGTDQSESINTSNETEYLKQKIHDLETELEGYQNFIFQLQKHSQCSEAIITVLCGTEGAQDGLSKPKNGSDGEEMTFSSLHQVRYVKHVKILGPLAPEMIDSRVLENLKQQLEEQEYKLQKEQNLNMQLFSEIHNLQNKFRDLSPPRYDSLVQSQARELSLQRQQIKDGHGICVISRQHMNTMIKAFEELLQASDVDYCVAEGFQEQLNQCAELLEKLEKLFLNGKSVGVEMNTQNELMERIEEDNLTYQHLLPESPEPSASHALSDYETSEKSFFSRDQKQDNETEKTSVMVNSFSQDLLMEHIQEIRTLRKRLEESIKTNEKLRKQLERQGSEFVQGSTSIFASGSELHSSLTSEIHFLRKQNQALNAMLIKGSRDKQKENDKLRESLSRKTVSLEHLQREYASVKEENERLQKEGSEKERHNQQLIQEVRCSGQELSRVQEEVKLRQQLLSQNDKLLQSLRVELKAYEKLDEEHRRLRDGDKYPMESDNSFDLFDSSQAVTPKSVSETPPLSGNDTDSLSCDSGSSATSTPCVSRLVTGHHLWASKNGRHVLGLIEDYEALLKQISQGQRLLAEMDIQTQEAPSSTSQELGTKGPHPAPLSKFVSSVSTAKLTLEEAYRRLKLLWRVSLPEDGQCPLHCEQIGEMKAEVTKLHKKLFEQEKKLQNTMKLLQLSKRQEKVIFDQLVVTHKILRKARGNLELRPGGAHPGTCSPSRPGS
GFP::CDK5RAP2 isoform B (full-length, wild type) (human), sequence (Q96SN8 other isoform, or with tags, fused parts or gaps): as above

“human gamma tubulin ring complex tagged with blue fluorescent protein (mBFP::γ-TuRC) (from UniProt P23258 1-451)”: the fold more recruited into scaffolds in the presence of mCherry::HSET (4-component against 3-component) in test [1] was 1.4 fold.

B1: mCherry::HSET (full-length, wild type) (natural protein, human, UniProt Q9BW19 1-673, looked up)
chain: MDPQRSPLLEVKGNIELKRPLIKAPSQLPLSGSRLKRRPDQMEDGLEPEKKRTRGLGATTKITTSHPRVPSLTTVPQTQGQTTAQKVSKKTGPRCSTAIATGLKNQKPVPAVPVQKSGTSGVPPMAGGKKPSKRPAWDLKGQLCDLNAELKRCRERTQTLDQENQQLQDQLRDAQQQVKALGTERTTLEGHLAKVQAQAEQGQQELKNLRACVLELEERLSTQEGLVQELQKKQVELQEERRGLMSQLEEKERRLQTSEAALSSSQAEVASLRQETVAQAALLTEREERLHGLEMERRRLHNQLQELKGNIRVFCRVRPVLPGEPTPPPGLLLFPSGPGGPSDPPTRLSLSRSDERRGTLSGAPAPPTRHDFSFDRVFPPGSGQDEVFEEIAMLVQSALDGYPVCIFAYGQTGSGKTFTMEGGPGGDPQLEGLIPRALRHLFSVAQELSGQGWTYSFVASYVEIYNETVRDLLATGTRKGQGGECEIRRAGPGSEELTVTNARYVPVSCEKEVDALLHLARQNRAVARTAQNERSSRSHSVFQLQISGEHSSRGLQCGAPLSLVDLAGSERLDPGLALGPGERERLRETQAINSSLSTLGLVIMALSNKESHVPYRNSKLTYLLQNSLGGSAKMLMFVNISPLEENVSESLNSLRFASKVNQCVIGTAQANRK
notes: HSET/KifC1, kinesin-14 motor protein, human; also called KifC1; HSET/KifC1; source: SF9 insect cells (baculovirus, FlexiBAC), purified (Ni-NTA)
For B1, the binding result in test [2] is “binds”.
